Laboratory results reported in publication PMC11508087 (2024).

B1: pOA-2 (antibody, V domains shown)
VH: EEKVVESGGGLVQPGGSLRLSCVGSGFNFKNYEINWVRQAPGKALEWLAYITQTSDFIYYADSVKGRFTISRDNSRNTAYLQMNNLRTEDTARYFCTRAGLTGCKSRHCMYVWGPGAEVVVSS
VL: QTVIQEPAMSVSLGGTVTLTCGFISGSVTGTNYPSWFQQTPGQPPRLLIYYANSRPTEVPSRFSGAISGNKAALTITGAQAEDEADYFCCLYKTNNNILFGGGTHLTVL
B2: pOA-1 (antibody, V domains shown)
VH: EENVVESGGGLVRPGGSLRLSCIFSGFTFSTYSVRWVRQAPGKGLEFLTYIFKNVGDIDTADSVKGRFTISRDNSQNTAYLQMNSLRPEDTARYFCLVANKYWGPGVEVLVSS
VL: AIVLTQSPLSLSVSPGDSASISCRSSQSLVEDDGSSVLNWYLQRPGQSPQRLIYSAVGRDAGVPDRFSGSGSGTDFTLTISGVEAEDLGVYYCQQSKVSTTFGAGSKLDLK
B3: pOA-13 (antibody, V domains shown)
VH: EGQLVQSGGGRVQPGGSLRLVCVGSGDDGLGHYAVTWVRQAPGRGLEWLASDASRVTTTYYADSVKGRFTSTLDIPHNTAYLQMNSLKTEDTARYFCARNVWTLDIWGPGVEVVVS
VL: QTVIQEPAMSVSLGGTVTLTCAFRGGSVDGDNYPGWLRQQTPGQPPRLLISSTNNRPTGVPSRFSGTISGNKATLTITGAQTEDEADYFCALWNDNNNRLIFGGGTRLTVL

Assays:
Assay in all cases: BLI
[1] = target: T1, FMDV O/Tibet/99 146S antigen (foot-and-mouth disease virus serotype …)
FMDV A/AF72 146S antigen [2] = target: T2, FMDV A/AF72 146S antigen (foot-and-mouth disease virus serotype …)
[3] = target: T1, FMDV O/Tibet/99 146S antigen; remark: listed apart in the source
FMDV A/AF72 146S antigen [4] = target: T2, FMDV A/AF72 146S antigen; remark: listed apart in the source

| Binder | Kd [1] [nM] | Kd (FMDV A/AF72 146S antigen [2]) [nM] | koff [3] [s⁻¹] | koff (FMDV A/AF72 146S antigen [4]) [s⁻¹] |
| --- | --- | --- | --- | --- |
| B1 | 4.85 | 4.44 | 0.00242 | 0.00249 |
| B2 |  | 2.48 | 2.88e-05 | 0.00467 |
| B3 | 1.8 | 5.11 | 0.00143 | 0.00634 |
